Measurements published in US20120041175A1 (ROCKEFELLER UNIVERISTY, published 2012).
Blank lines part the entries; values can stand above or below the binder they belong to.

Key:
[1] = target: Myc-Vps34/PtdIns3K (Myc-tagged hVps34) (human, UniProt Q8NEB9 1-887); experiment: cell-based or functional assay
[2] = target: T1, ATG14L-EGFP (full-length mouse ATG14L tagged with EGFP at the C-terminus) (mouse, UniProt Q8CDJ3 1-492); experiment: co-IP with anti-GFP antibody from co-transfected HEK 293T cells (FIG. 11)
T1 construct: Mouse cDNA cloned into pEGFP-N3 and expressed in HEK 293/293T or HeLa cells; also called EGFP-tagged ATG14L; GFP-tagged full-length ATG14L; not shown: EGFP tag at the C-terminus (pEGFP-N3 vector)

[3] = target: T2, Rubicon-EGFP (full-length mouse Rubicon tagged with EGFP at the C-terminus) (mouse, UniProt Q80U62 1-956); experiment: as above
T2 construct: also called EGFP-tagged Rubicon; GFP-tagged full-length Rubicon; not shown: EGFP tag at the C-terminus (pEGFP-N3 vector)
T2 sequence: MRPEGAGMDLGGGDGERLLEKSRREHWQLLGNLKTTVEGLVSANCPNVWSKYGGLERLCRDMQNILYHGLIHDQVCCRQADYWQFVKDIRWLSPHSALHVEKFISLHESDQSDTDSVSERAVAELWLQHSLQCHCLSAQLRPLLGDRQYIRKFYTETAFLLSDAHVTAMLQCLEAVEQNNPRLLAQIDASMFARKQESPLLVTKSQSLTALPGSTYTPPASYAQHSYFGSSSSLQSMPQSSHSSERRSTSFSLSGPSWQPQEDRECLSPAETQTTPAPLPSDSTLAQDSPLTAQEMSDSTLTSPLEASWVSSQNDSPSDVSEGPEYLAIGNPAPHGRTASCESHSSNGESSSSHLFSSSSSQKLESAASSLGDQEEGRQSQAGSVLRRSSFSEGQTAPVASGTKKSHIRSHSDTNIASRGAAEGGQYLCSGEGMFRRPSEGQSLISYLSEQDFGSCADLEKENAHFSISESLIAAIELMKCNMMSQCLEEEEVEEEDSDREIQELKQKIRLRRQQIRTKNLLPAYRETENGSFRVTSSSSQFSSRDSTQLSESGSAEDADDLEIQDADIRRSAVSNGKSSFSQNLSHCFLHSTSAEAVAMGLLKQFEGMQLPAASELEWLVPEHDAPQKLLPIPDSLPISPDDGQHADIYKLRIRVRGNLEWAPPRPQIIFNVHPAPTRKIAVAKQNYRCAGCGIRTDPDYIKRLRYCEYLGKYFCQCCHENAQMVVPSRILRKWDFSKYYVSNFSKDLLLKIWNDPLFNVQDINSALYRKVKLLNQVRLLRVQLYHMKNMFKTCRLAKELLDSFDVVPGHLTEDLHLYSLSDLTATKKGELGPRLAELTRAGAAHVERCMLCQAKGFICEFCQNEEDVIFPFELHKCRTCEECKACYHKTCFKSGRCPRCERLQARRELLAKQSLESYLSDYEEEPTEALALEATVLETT

[4] = target: T3, ATG14L (endogenous, mouse tissue or NIH 3T3 cells) (mouse, UniProt Q8CDJ3 1-492); experiment: co-IP of endogenous proteins with anti-ATG14L antibody from NIH 3T3 cell lysates, Western blot
T3 construct: also called BISC

[5] = target: T1, ATG14L-EGFP (full-length mouse ATG14L …); experiment: co-IP with anti-GFP antibody from co-transfected HEK 293T cells, anti-FLAG blot
Description: (§1) FIG. 2A-E. Mapping of the binding domains that mediate the interaction between Beclin 1 and ATG14L/Rubicon. (A) Schematic representations of Beclin 1, ATG14L and Rubicon domain structures and the construction of multiple deletion mutants. The Beclin 1 mutants were tagged with FLAG at N-termini. The ATG14L or Rubicon mutants were tagged with EGFP at C-termini. (B) and (C) Domain mapping in Beclin 1 sequence required for binding ATG14L or Rubicon. HEK 293T cells were co-transfected with FLAG-tagged Beclin 1 mutant constructs and GFP-tagged full-length ATG14L […]. The immunoprecipitation was performed with anti-GFP antibody, followed by Western blotting with anti-FLAG antibody.
(§2) DNA plasmids were transfected into HEK 293T cells for immunoprecipitation. For Co-immunoprecipitation experiments, two or three plasmids were transfected simultaneously in equal amount. Cells were lysed in immunoprecipitation lysis buffer (20 mM HEPES, pH7.4/1 mM MgCl2/0.25 mM CaCl2/0.2% Triton X-100/150 mM NaCl/protease inhibitor and PMSF-pepstatin/DNaseI). For immunoprecipitation with GFP, ATG14L or Rubicon antibody, Dynabeads M-270 E-proxy (Invitrogen, Carlsbad, Calif.) were conjugated with each antibody, and incubated with cell lysate at 4° C. for 2 hours. After the beads were washed in ATG14L or Rubicon lysis buffer for 5 times, proteins were eluted by incubating beads in elution buffer (0.5 mM EDTA, pH8/0.5N NH₃.H₂O) at room temperature for 20 minutes and dried with vacuum speed centrifuge. For FLAG-tagged protein IP, Anti-FLAG M2 affinity resin (Sigma, St Louis, Mo.) was used and the manufacture's protocol was followed.

[6] = target: T2, Rubicon-EGFP (full-length mouse Rubicon …); experiment: as above
Description: as §1, §2

[7] = target: T1, ATG14L-EGFP (full-length mouse ATG14L …); experiment: co-IP with anti-GFP antibody from co-transfected HEK 293T cells; anti-FLAG blot
Description: as §1
DNA plasmids were transfected into HEK 293T cells for immunoprecipitation. For Co-immunoprecipitation experiments, two or three plasmids were transfected simultaneously in equal amount. Cells were lysed in immunoprecipitation lysis buffer (20 mM HEPES, pH7.4/1 mM MgCl2/0.25 mM CaCl2/0.2% Triton X-100/150 mM NaCl/protease inhibitor and PMSF-pepstatin/DNaseI). For immunoprecipitation with GFP, ATG14L or Rubicon antibody, Dynabeads M-270 E-proxy (Invitrogen, Carlsbad, Calif.) were conjugated with each antibody, and incubated with cell lysate at 4° C. for 2 hours. […]

Myc-Vps34/PtdIns3K (Myc-tagged hVps34), sequence (Q8NEB9 whole entry): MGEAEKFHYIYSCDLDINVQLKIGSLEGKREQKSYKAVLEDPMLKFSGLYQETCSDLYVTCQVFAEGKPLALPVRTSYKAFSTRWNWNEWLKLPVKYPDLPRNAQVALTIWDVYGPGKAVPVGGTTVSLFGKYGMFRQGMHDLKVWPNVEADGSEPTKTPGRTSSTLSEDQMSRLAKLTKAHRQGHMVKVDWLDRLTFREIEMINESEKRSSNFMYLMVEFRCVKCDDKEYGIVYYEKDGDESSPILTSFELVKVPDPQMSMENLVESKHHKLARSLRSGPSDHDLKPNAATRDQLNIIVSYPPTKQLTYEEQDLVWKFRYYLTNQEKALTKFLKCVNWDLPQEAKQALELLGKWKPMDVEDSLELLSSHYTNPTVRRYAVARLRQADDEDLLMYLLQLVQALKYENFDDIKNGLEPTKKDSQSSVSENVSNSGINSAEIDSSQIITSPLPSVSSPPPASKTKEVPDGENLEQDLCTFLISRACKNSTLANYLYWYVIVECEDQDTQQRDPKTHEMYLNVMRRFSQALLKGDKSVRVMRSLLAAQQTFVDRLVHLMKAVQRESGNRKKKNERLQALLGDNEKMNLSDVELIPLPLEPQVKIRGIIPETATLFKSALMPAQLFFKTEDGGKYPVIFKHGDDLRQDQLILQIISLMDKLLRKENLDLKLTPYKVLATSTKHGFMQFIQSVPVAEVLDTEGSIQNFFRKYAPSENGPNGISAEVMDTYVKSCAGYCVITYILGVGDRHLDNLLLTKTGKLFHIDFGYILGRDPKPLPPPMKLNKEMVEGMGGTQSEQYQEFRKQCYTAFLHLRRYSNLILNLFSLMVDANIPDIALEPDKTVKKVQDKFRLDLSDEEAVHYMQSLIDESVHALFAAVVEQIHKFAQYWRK

B1: FLAG-Rubicon (mouse Rubicon tagged with FLAG at the N-terminus) (other, not shown: small tags and cut ends)
chain: T2 sequence
Vps34 kinase activity (radioactive PtdIns(3)P normalized against immunoprecipitated Myc-tagged Vps34), over-expressed Rubicon against empty vector, in the absence of Beclin 1 [1]: 0.58 ratio

B2: FLAG-ATG14L (mouse ATG14L tagged with FLAG at the N-terminus) (other, not shown: small tags and cut ends)
chain: MASPSGKGSWTPEAPGFGPRALARDLVDSVDDAEGLYVAVERCPLCNTTRRRLTCAKCVQSGDFVYFDGRDRERFIDKKERLSQLKNKQEEFQKEVLKAMEGKRLTDQLRWKIMSCKMRIEQLKQTICKGNEEMKKNSEGLLKNKEKNQKLYSRAQRHQEKKEKIQRHNRKLGDLVEKKTIDLKSHYERLARLRRSHILELTSIIFPIDEVKTSGRDPADVSSETDSAMTSSMVSKLAEARRTTYLSGRWVCDDHNGDTSISITGPWISLPNNGDYSAYYNWVEEKKTTQGPDMEHNNPAYTISAALGYATQLVNIVSHILDINLPKKLCNSEFCGENLSKQKLTRAVRKLNANILYLCSSQHVNLDQLQPLHTLRNLMHLVSPRSEHLGRSGPFEVRADLEESMEFVDPGVAGESDASGDERVSDEETDLGTDWENLPSPRFCDIPSQPVEVSQSQSTQVSPPIASSSAGGMISSAAASVTSWFKAYTGHR
Vps34 kinase activity (radioactive PtdIns(3)P normalized against immunoprecipitated Myc-tagged Vps34), over-expressed ATG14L against empty vector, in the presence of Beclin 1 [1]: 2.5 ratio

B3: Beclin 1-AsRed (other)
chain: MEGSKASSSTMQVSFVCQRCSQPLKLDTSFKILDRVTIQELTAPLLTTAQAKPGETQEEEANSGEEPFIETRQDGVSRRFIPPARMMSTESANSFTLIGEASDGGTMENLSRRLKVTGDLFDIMSGQTDVDHPLCEECTDTLLDQLDTQLNVTENECQNYKRCLEILEQMNEDDSEQLQRELKELALEEERLIQELEDVEKNRKVVAENLEKVQAEAERLDQEEAQYQREYSEFKRQQLELDDELKSVENQVRYAQIQLDKLKKTNVFNATFHIWHSGQFGTINNFRLGRLPSVPVEWNEINAAWGQTVLLLHALANKMGLKFQRYRLVPYGNHSYLESLTDKSKELPLYCSGGLRFFWDNKFDHAMVAFLDCVQQFKEEVEKGETRFCLPYRMDVEKGKIEDTGGSGGSYSIKTQFNSEEQWTKALKFMLTNLKWGLAWVSSQFYNK
notes: Beclin 1 cDNA from mouse brain cloned into pAs-Red; not shown: AsRed fluorescent protein tag (pAs-Red vector)
binding result [2]: binds | binding result [3]: binds

B4: endogenous Beclin 1 of NIH 3T3 cells / mouse tissue (other)
chain: B3 chain
notes: NIH 3T3 is a mouse cell line (inference)
binding result [4]: binds

Next, values leading:

binding result [5]: no binding | binding result [6]: no binding
B5: FLAG-Beclin 1 BD domain (aa 1-150) (other)
chain: MEGSKASSSTMQVSFVCQRCSQPLKLDTSFKILDRVTIQELTAPLLTTAQAKPGETQEEEANSGEEPFIETRQDGVSRRFIPPARMMSTESANSFTLIGEASDGGTMENLSRRLKVTGDLFDIMSGQTDVDHPLCEECTDTLLDQLDTQL
notes: not shown: FLAG tag at the N-terminus (pCMV-FLAG2 vector)

binding result [5]: no binding | binding result [6]: no binding
B6: FLAG-Beclin 1 ECD domain (aa 244-448) (other)
chain: ELKSVENQVRYAQIQLDKLKKTNVFNATFHIWHSGQFGTINNFRLGRLPSVPVEWNEINAAWGQTVLLLHALANKMGLKFQRYRLVPYGNHSYLESLTDKSKELPLYCSGGLRFFWDNKFDHAMVAFLDCVQQFKEEVEKGETRFCLPYRMDVEKGKIEDTGGSGGSYSIKTQFNSEEQWTKALKFMLTNLKWGLAWVSSQFYNK
notes: also called E (Evolutionarily conserved domain); FLAG-E; not shown: FLAG tag at the N-terminus (pCMV-FLAG2 vector)

binding result [6]: no binding
B7: FLAG-Beclin 1 BC (Bcl2-binding domain and Coiled-coil domain) (other)
chain: MEGSKASSSTMQVSFVCQRCSQPLKLDTSFKILDRVTIQELTAPLLTTAQAKPGETQEEEANSGEEPFIETRQDGVSRRFIPPARMMSTESANSFTLIGEASDGGTMENLSRRLKVTGDLFDIMSGQTDVDHPLCEECTDTLLDQLDTQLNVTENECQNYKRCLEILEQMNEDDSEQLQRELKELALEEERLIQELEDVEKNRKVVAENLEKVQAEAERLDQEEAQYQREYSEFKRQQLELDDELKSVENQVRYAQIQLDKLKKTNVFN
notes: also called FLAG-BC; not shown: FLAG tag at the N-terminus (pCMV-FLAG2 vector)

binding result [6]: no binding | binding result [7]: binds
B8: FLAG-Beclin 1 CCD domain (aa 144-269) (other)
chain: DQLDTQLNVTENECQNYKRCLEILEQMNEDDSEQLQRELKELALEEERLIQELEDVEKNRKVVAENLEKVQAEAERLDQEEAQYQREYSEFKRQQLELDDELKSVENQVRYAQIQLDKLKKTNVFN
notes: aa 144-269 is printed for the CCD domain of Beclin 1; also called C (Coiled-coil domain); FLAG-C; not shown: FLAG tag at the N-terminus (pCMV-FLAG2 vector)
